Source: publication PMC10786891, “Massively parallel profiling of RNA-targeting CRISPR-Cas13d”
Changes are numbered by the printed parent chain. In names and notes the source's numbering stands.

T1: EsCas13d, nuclease-dead (Eubacterium siraeum, UniProt B0MS50, R295A;H300A;R849A;H854A)
T1 sequence: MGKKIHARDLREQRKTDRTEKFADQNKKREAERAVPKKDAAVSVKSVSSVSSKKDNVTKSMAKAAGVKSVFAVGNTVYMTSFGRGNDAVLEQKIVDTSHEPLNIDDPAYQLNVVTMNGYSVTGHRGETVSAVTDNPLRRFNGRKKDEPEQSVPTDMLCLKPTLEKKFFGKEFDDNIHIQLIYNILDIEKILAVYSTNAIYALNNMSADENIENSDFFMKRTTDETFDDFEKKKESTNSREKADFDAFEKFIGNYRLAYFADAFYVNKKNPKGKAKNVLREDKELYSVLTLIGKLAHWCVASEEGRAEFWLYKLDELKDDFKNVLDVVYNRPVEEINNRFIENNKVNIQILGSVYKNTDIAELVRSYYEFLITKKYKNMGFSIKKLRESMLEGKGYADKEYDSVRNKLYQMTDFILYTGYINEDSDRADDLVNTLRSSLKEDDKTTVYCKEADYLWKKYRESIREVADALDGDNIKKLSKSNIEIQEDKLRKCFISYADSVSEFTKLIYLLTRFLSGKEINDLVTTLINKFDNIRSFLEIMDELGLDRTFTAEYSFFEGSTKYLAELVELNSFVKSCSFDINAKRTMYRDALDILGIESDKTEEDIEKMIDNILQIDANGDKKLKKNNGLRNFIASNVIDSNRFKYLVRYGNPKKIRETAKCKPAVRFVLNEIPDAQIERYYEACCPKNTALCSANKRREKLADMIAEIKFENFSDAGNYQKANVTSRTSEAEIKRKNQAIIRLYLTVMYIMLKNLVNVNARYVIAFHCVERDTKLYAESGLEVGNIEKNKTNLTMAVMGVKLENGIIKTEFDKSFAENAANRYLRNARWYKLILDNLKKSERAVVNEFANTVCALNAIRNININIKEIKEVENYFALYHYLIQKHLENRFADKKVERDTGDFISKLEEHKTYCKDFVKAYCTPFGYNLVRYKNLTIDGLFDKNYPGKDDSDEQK

B1: target 1 MT 5'PFS GGC 3'PFS ACA (mixed)
RNA 1: CACCCGUGCAAAAAUGCAGGGGUCUAAAACUGAGCGGAUAACCUCUCUAUGG
RNA 2: GGGAAUGGAUCCACAUCUACGAAUUCGGCCCAUAGAGAGGUUAUCCGCUCAACAAGAUCGGAAGAGCACACGU
B2: target 1 MT 5'PFS GAA 3'PFS AAC (mixed)
RNA 1: B1 RNA 1
RNA 2: B1 RNA 2 with G28A, C29A, C53A, A54C
B3: target 1 MT 5'PFS UAG 3'PFS CGA (mixed)
RNA 1: B1 RNA 1
RNA 2: B1 RNA 2 with G27U, G28A, C29G, A52C, C53G
B4: target 1 MT 5'PFS GGA 3'PFS AGC (mixed)
RNA 1: B1 RNA 1
RNA 2: B1 RNA 2 with C29A, C53G, A54C
B5: target 1 MT 5'PFS GCG 3'PFS UGA (mixed)
RNA 1: B1 RNA 1
RNA 2: B1 RNA 2 with G28C, C29G, A52U, C53G
B6: target 1 MT 5'PFS AAU 3'PFS AAU (mixed)
RNA 1: B1 RNA 1
RNA 2: B1 RNA 2 with G27A, G28A, C29U, C53A, A54U
B7: target 1 MT 5'PFS GUG 3'PFS CUC (mixed)
RNA 1: B1 RNA 1
RNA 2: B1 RNA 2 with G28U, C29G, A52C, C53U, A54C
B8: target 1 MT 5'PFS GGA 3'PFS GGG (mixed)
RNA 1: B1 RNA 1
RNA 2: B1 RNA 2 with C29A, A52G, C53G, A54G
B9: target 1 MT 5'PFS ACU 3'PFS AUA (mixed)
RNA 1: B1 RNA 1
RNA 2: B1 RNA 2 with G27A, G28C, C29U, C53U
B10: target 1 MT 5'PFS GCG 3'PFS UGC (mixed)
RNA 1: B1 RNA 1
RNA 2: B1 RNA 2 with G28C, C29G, A52U, C53G, A54C
B11: target 1 MT 5'PFS CUC 3'PFS CGA (mixed)
RNA 1: B1 RNA 1
RNA 2: B1 RNA 2 with G27C, G28U, A52C, C53G
B12: target 1 MT 5'PFS GCA 3'PFS CGU (mixed)
RNA 1: B1 RNA 1
RNA 2: B1 RNA 2 with G28C, C29A, A52C, C53G, A54U
B13: target 1 MT 5'PFS UCA 3'PFS UUG (mixed)
RNA 1: B1 RNA 1
RNA 2: B1 RNA 2 with G27U, G28C, C29A, A52U, C53U, A54G
B14: target 1 MT 5'PFS GGA 3'PFS GGU (mixed)
RNA 1: B1 RNA 1
RNA 2: B1 RNA 2 with C29A, A52G, C53G, A54U
B15: target 1 MT 5'PFS CCU 3'PFS AAC (mixed)
RNA 1: B1 RNA 1
RNA 2: B1 RNA 2 with G27C, G28C, C29U, C53A, A54C
B16: target 1 insC 3' of 20,insC 3' of 18 (mixed)
RNA 1: B1 RNA 1
RNA 2: GGGAAUGGAUCCACAUCUACGAAUUCGUACCACUACGAGAGGUUAUCCGCUCACCGAGAUCGGAAGAGCACACGU
B17: target 1 MT 5'PFS GAA 3'PFS UGC (mixed)
RNA 1: B1 RNA 1
RNA 2: B1 RNA 2 with G28A, C29A, A52U, C53G, A54C
B18: target 1 MT 5'PFS GUG 3'PFS CUA (mixed)
RNA 1: B1 RNA 1
RNA 2: B1 RNA 2 with G28U, C29G, A52C, C53U
B19: target 1 C4A (mixed)
RNA 1: B1 RNA 1
RNA 2: B1 RNA 2 with G28U, C29A, C48A, A52C, A54G
B20: target 1 MT 5'PFS AAG 3'PFS AGA (mixed)
RNA 1: B1 RNA 1
RNA 2: B1 RNA 2 with G27A, G28A, C29G, C53G
B21: target 1 MT 5'PFS GGC 3'PFS UUA (mixed)
RNA 1: B1 RNA 1
RNA 2: B1 RNA 2 with A52U, C53U
B22: target 1 MT 5'PFS GAA 3'PFS UGA (mixed)
RNA 1: B1 RNA 1
RNA 2: B1 RNA 2 with G28A, C29A, A52U, C53G
B23: target 1 MT 5'PFS ACU 3'PFS AUC (mixed)
RNA 1: B1 RNA 1
RNA 2: B1 RNA 2 with G27A, G28C, C29U, C53U, A54C
B24: target 1 MT 5'PFS GGC 3'PFS UUC (mixed)
RNA 1: B1 RNA 1
RNA 2: B1 RNA 2 with A52U, C53U, A54C
B25: target 1 MT 5'PFS UCG 3'PFS UGU (mixed)
RNA 1: B1 RNA 1
RNA 2: B1 RNA 2 with G27U, G28C, C29G, A52U, C53G, A54U
B26: target 1 MT 5'PFS GUG 3'PFS CUU (mixed)
RNA 1: B1 RNA 1
RNA 2: B1 RNA 2 with G28U, C29G, A52C, C53U, A54U
B27: target 1 MT 5'PFS GGA 3'PFS AGU (mixed)
RNA 1: B1 RNA 1
RNA 2: B1 RNA 2 with C29A, C53G, A54U
B28: target 1 MT 5'PFS CUG 3'PFS UAC (mixed)
RNA 1: B1 RNA 1
RNA 2: B1 RNA 2 with G27C, G28U, C29G, A52U, C53A, A54C
B29: target 1 MT 5'PFS UAG 3'PFS CGG (mixed)
RNA 1: B1 RNA 1
RNA 2: B1 RNA 2 with G27U, G28A, C29G, A52C, C53G, A54G
B30: target 1 MT 5'PFS ACG 3'PFS CUA (mixed)
RNA 1: B1 RNA 1
RNA 2: B1 RNA 2 with G27A, G28C, C29G, A52C, C53U
B31: target 1 MT 5'PFS UAG 3'PFS CGU (mixed)
RNA 1: B1 RNA 1
RNA 2: B1 RNA 2 with G27U, G28A, C29G, A52C, C53G, A54U
B32: target 1 C21U,C22A (mixed)
RNA 1: B1 RNA 1
RNA 2: B1 RNA 2 with G28U, C29A, C30A, C31U, A52C, A54G
B33: target 1 C4A,C7A (mixed)
RNA 1: B1 RNA 1
RNA 2: B1 RNA 2 with G28U, C29A, C45A, C48A, A52C, A54G
B34: target 1 MT 5'PFS GCA 3'PFS CGC (mixed)
RNA 1: B1 RNA 1
RNA 2: B1 RNA 2 with G28C, C29A, A52C, C53G, A54C
B35: target 1 MT 5'PFS CCU 3'PFS AAA (mixed)
RNA 1: B1 RNA 1
RNA 2: B1 RNA 2 with G27C, G28C, C29U, C53A
B36: target 1 MT 5'PFS GAA 3'PFS UGU (mixed)
RNA 1: B1 RNA 1
RNA 2: B1 RNA 2 with G28A, C29A, A52U, C53G, A54U
B37: target 1 MT 5'PFS ACU 3'PFS AUU (mixed)
RNA 1: B1 RNA 1
RNA 2: B1 RNA 2 with G27A, G28C, C29U, C53U, A54U
B38: target 1 MT 5'PFS AAG 3'PFS AGG (mixed)
RNA 1: B1 RNA 1
RNA 2: B1 RNA 2 with G27A, G28A, C29G, C53G, A54G
B39: target 1 MT 5'PFS UCA 3'PFS UUA (mixed)
RNA 1: B1 RNA 1
RNA 2: B1 RNA 2 with G27U, G28C, C29A, A52U, C53U
B40: target 1 MT 5'PFS ACG 3'PFS CUG (mixed)
RNA 1: B1 RNA 1
RNA 2: B1 RNA 2 with G27A, G28C, C29G, A52C, C53U, A54G

Molecular target: T1, EsCas13d, nuclease-dead
Assay: crRNA (strand 1, pre-loaded); Mg2+; 40 mM Tris-HCl pH 7.5, 150 mM NaCl, 6 mM MgCl2, 1 mM DTT, 0.1% Tween-20, 0.2 mg/ml BSA; 25 C; 10 min per concentration, then washed
Conditions: tags: His6-TwinStrep-SUMO cleaved; N-terminal SNAP kept (SNAP-Surface 488); label: 3' end held by stalled T7 RNA polymerase

Binder | Kd
B1 | 20 ± 10 nM
B2 | ~47 nM
B3 | 27 ± 6 nM
B4 | 15.6 ± 2.9 nM
B5 | 20.8 ± 7.75 nM
B6 | 38 ± 17 nM
B7 | 19.4 ± 2.75 nM
B8 | 54 ± 18 nM
B9 | 67 ± 18 nM
B10 | 22.5 ± 6.5 nM
B11 | 80 ± 40 nM
B12 | 11.4 ± 2.2 nM
B13 | 37 ± 9.5 nM
B14 | 45 ± 18 nM
B15 | 18 ± 4.5 nM
B16 | 6.1 ± 0.5 nM
B17 | 10.8 ± 2.05 nM
B18 | 16.2 ± 2 nM
B19 | 3.8 ± 0.4 nM
B20 | 38 ± 14 nM

Binder | Kd
B21 | 11.7 ± 2.55 nM
B22 | 30.5 ± 9 nM
B23 | ~50 nM
B24 | 12.9 ± 2.4 nM
B25 | 57 ± 22 nM
B26 | 10.2 ± 0.9 nM
B27 | 22 ± 3.7 nM
B28 | 4.1 ± 0.7 nM
B29 | 55 ± 10 nM
B30 | ~32 nM
B31 | 63.5 ± 28 nM
B32 | 28.9 ± 2 nM
B33 | 6.6 ± 0.4 nM
B34 | 71 ± 27 nM
B35 | 59.5 ± 20 nM
B36 | 56.5 ± 14.5 nM
B37 | 53 ± 26 nM
B38 | 60.5 ± 22.5 nM
B39 | 10.8 ± 2.25 nM
B40 | 53.5 ± 23 nM
